Assay results: paper PMC2771690 (Molecular cell, 2009)

Molecular target: T1, proliferating cell nuclear antigen (PCNA), yeast (yeast, UniProt P15873 1-258)
T1 sequence (looked up): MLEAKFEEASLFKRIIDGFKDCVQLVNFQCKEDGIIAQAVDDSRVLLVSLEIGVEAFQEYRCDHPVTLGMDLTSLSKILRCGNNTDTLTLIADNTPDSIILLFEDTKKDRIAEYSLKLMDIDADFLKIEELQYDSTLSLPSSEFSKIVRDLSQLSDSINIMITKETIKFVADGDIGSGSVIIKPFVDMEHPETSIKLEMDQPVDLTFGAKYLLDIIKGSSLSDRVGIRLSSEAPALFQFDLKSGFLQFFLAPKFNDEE
Assay: pull-down

B1: GST-PINIT (Siz1 aa 172-315 as a C-terminal fusion to GST), wild-type (domain or fragment, S. cerevisiae, UniProt Q04195 172-315, looked up)
chain: VPTIHFKESPFYKIQRLIPELVMNVEVTGGRGMCSAKFKLSKADYNLLSNPNSKHRLYLFSGMINPLGSRGNEPIQFPFPNELRCNNVQIKDNIRGFKSKPGTAKPADLTPHLKPYTQQNNVELIYAFTTKEYKLFGYIVEMIT
binding result: binds
